The target in test [1] is T1, pGBTE2Fa226-356: GAL4 DNA-binding domain fusion of AtE2Fa amino acids 226-356 (Arabidopsis).
T1 construct: also called E2F5 dimerisation domain; E2Fa (=E2F5) dimerization domain
Nature of the test: yeast two-hybrid, growth on His- minimal medium; legend: +, positive interaction. The method, then: (§1) Different combinations between bait (pGBTE2Fa226-356, pGBTE2Fb-Rb, or pGBTE2Fb 1-127, SEQ ID NO:207) and prey constructs were transformed into yeast cells and assayed for their ability to grow on His⁻ minimal media after 3 days of incubation at 30° C. Bait plasmids co-transformed with empty pAD-GAL424 and prey plasmids co-transformed with empty pGBT9 were assessed along as controls for the specificity of the interaction.
(§2) Different combinations between AtE2Fs bait and AtDPs prey constructs were tested for growth on His minimal media. −, no interaction; +, positive interaction; NT, not tested.

The target of test [2] is T2, pGBTE2Fb-Rb: GAL4 DNA-binding domain fusion of AtE2Fb amino acids 1-385 (lacking the Rb-binding domain) (Arabidopsis).
T2 construct: also called E2F3 N-terminal; E2Fb (=E2F3) N-terminal domain
The test is described as above. As to the method:
as §1, §2

The target in test [3] is T1, pGBTE2Fa226-356: GAL4 DNA-binding …. Nature of the test: yeast two-hybrid, growth on His- minimal medium; legend: -, no interaction.
The target in test [4] is T2, pGBTE2Fb-Rb: GAL4 DNA-binding domain …. The test is described as above.
The target of test [5] is T3, empty pGBT9 (GAL4 DNA-binding domain alone) (UniProt P04386 1-147).
T3 construct: empty bait vector, control for specificity; also called pBGT9
Briefly: yeast two-hybrid, growth on His- minimal medium; empty bait vector control; legend: -, no interaction. The method, then:
as §1, §2

B1: GAL4 transactivation domain fusion of AtDPb 182-385 (prey in pAD-GAL424) (other, not shown: large carriers)
chain: GLPRTSLSDIEELKNERLSLRNRIEKKTAYSQELEEQYVGLQNLIQRNEHLYSSGNAPSGGVALPFILVQTRPHATVEVEISEDMQLVHFDFNSTPFELHDDNFVLKTMKFCDQPPQQPNGRNNSQLVCHNFTPENPNKGPSTGPTPQLDMYETHLQSQQHQQHSQLQIIPMPETNNVTSSADTAPVKSPSLPGIMNSSMKPEN
For the molecule B1, the binding result in test [1] and in test [2] was “binds” in each case.

B2: GAL4 transactivation domain fusion of AtDPa 121-213 (prey in pAD-GAL424) (other, not shown: large carriers)
chain: IIARDKKEIRWKGLPITCKKDVEEVKMDRNKVMSSVQKKAAFLKELREKVSSLESLMSRNQEMVVKTQGPAEGFTLPFILLETNPHAVVEIEI
In the case of B2, the binding result in test [3], in test [4] and in test [5] was “no binding” throughout.

B3: GAL4 transactivation domain fusion of AtDPa 1-142 (prey in pAD-GAL424) (other, not shown: large carriers)
chain: MSMEMELFVTPEKQRQHPSVSVEKTPVRRKLIVDDDSEIGSEKKGQSRTSGGGLRQFSVMVCQKLEAKKITTYKEVADEIISDFATIKQNAEKPLNENEYNEKNIRRRVYDALNVFMALDIIARDKKEIRWKGLPITCKKDV
For the molecule B3, the binding result in test [3], in test [4] and in test [5] was “no binding” throughout.

B4: GAL4 transactivation domain fusion of AtDPa 121-292 (prey in pAD-GAL424) (other, not shown: large carriers)
chain: IIARDKKEIRWKGLPITCKKDVEEVKMDRNKVMSSVQKKAAFLKELREKVSSLESLMSRNQEMVVKTQGPAEGFTLPFILLETNPHAVVEIEISEDMQLVHLDFNSTPFSVHDDAYILKLMQEQKQEQNRVSSSSSTHHQSQHSSAHSSSSSCIASGTSGPVCWNSGSIDTR
Consider B4, for which the binding result in test [1] and in test [2] was “binds” throughout.

B5: GAL4 transactivation domain fusion of AtDPb 1-193 (prey in pAD-GAL424) (other, not shown: large carriers)
chain: MTTTGSNSNHNHHESNNNNNNPSTRSWGTAVSGQSVSTSGSMGSPSSRSEQTITVVTSTSDTTFQRLNNLDIQGDDAGSQGASGVKKKKRGQRAAGPDKTGRGLRQFSMKVCEKVESKGRTTYNEVADELVAEFALPNNDGTSPDQQQYDEKNIRRRVYDALNVLMAMDIISKDKKEIQWRGLPRTSLSDIEE
As for B5, the binding result in test [3] and in test [4] was “no binding” throughout.

B6: GAL4 transactivation domain fusion of AtDPb 182-263 (prey in pAD-GAL424) (other, not shown: large carriers)
chain: GLPRTSLSDIEELKNERLSLRNRIEKKTAYSQELEEQYVGLQNLIQRNEHLYSSGNAPSGGVALPFILVQTRPHATVEVEI
Turning to B6, the binding result in test [5] was “no binding”; in test [1] it was “binds”; in test [2], “binds”.

B7: GAL4 transactivation domain fusion of AtDPa 42-292 (prey in pAD-GAL424) (other, not shown: large carriers)
chain: EKKGQSRTSGGGLRQFSVMVCQKLEAKKITTYKEVADEIISDFATIKQNAEKPLNENEYNEKNIRRRVYDALNVFMALDIIARDKKEIRWKGLPITCKKDVEEVKMDRNKVMSSVQKKAAFLKELREKVSSLESLMSRNQEMVVKTQGPAEGFTLPFILLETNPHAVVEIEISEDMQLVHLDFNSTPFSVHDDAYILKLMQEQKQEQNRVSSSSSTHHQSQHSSAHSSSSSCIASGTSGPVCWNSGSIDTR
For the molecule B7, the binding result in test [1] and in test [2] was “binds” in each case.

B8: GAL4 transactivation domain fusion of AtDPa 172-292 (prey in pAD-GAL424) (other, not shown: large carriers)
chain: SLESLMSRNQEMVVKTQGPAEGFTLPFILLETNPHAVVEIEISEDMQLVHLDFNSTPFSVHDDAYILKLMQEQKQEQNRVSSSSSTHHQSQHSSAHSSSSSCIASGTSGPVCWNSGSIDTR
Consider B8, for which the binding result in test [3], in test [4] and in test [5] was “no binding” in each case.

B9: GAL4 transactivation domain fusion of AtDPa 42-142 (prey in pAD-GAL424) (other, not shown: large carriers)
chain: EKKGQSRTSGGGLRQFSVMVCQKLEAKKITTYKEVADEIISDFATIKQNAEKPLNENEYNEKNIRRRVYDALNVFMALDIIARDKKEIRWKGLPITCKKDV
With B9, the binding result in test [3], in test [4] and in test [5] was “no binding” each time.

For the origin of these results see US20080207449A1 (CROPDESIGN N V, published 2008).
